{"source": "patent US7186695", "proteins": {"B1": {"name": "Recombinant human thioredoxin produced in E. coli (protein)", "chain": "MVKQIESKTAFQEALDAAGDKLVVVDFSATWCGPCKMIKPFFHSLSEKYSNVIFLEVDVDDCQDVASECEVKCMPTFQFFKKGQKVGEFSGANKEKLEATINELV"}}, "target": "70 kDa N-terminal fragment of fibronectin"}
{"protein": "B1", "values": [{"measurement": "thioredoxin-mediated reduction of the fibronectin fragment (free thiols labelled with MPB, SDS-PAGE, streptavidin peroxidase blot)", "value": "thioredoxin reduced one or more protein disulfide bonds in the 70 kDa N-terminal fragment of fibronectin"}]}
